Laboratory results reported in publication PMC8469834.

How the values were obtained:
[1] = system: T1, CadR (Pseudomonas putida KT2440), ORF:5b9d404e; test: EMSA; conditions: 10 mM Tris-HCl pH 8.0, 50 mM KCl, 5 mM MgCl2, 5% glycerol, 28 °C 20 min; EMSA 10 nM FAM probe (carbamyl phosphate with CzcR3); footprinting 40 nM probe, about …
T1 sequence: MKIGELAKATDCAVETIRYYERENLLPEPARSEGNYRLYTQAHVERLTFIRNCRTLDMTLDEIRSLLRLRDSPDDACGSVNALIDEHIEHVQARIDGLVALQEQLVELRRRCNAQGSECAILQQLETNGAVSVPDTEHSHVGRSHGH

[2] = system: T2, CzcR3 (Pseudomonas putida KT2440), ORF:67c4da9b; test: DNase I footprinting; conditions: 10 mM Tris-HCl pH 8.0, 50 mM KCl, 5 mM MgCl2, 5% glycerol, 28 °C 20 min; EMSA 10 nM FAM probe (carbamyl phosphate with CzcR3); footprinting 40 nM probe, about …
T2 sequence: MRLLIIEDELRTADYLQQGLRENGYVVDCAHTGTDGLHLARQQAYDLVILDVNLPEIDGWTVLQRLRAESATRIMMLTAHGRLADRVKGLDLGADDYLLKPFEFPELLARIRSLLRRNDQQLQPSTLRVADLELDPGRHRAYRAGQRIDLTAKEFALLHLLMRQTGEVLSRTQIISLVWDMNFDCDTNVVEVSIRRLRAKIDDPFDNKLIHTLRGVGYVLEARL

[3] = system: T2, CzcR3 (Pseudomonas putida KT2440), ORF:67c4da9b; test: EMSA; conditions: 10 mM Tris-HCl pH 8.0, 50 mM KCl, 5 mM MgCl2, 5% glycerol, 28 °C 20 min; EMSA 10 nM FAM probe (carbamyl phosphate with CzcR3); footprinting 40 nM probe, about …
[4] = target: CzcR3, the response regulator of two-component system CzcRS3 (Pseudomonas putida KT2440) (UniProt F6KX51); test: electrophoresis analysis; purified His-tagged CzcR3 alone, in vitro; kind of gel and conditions not told in the text (Figure S1)
[5] = system: T1, CadR (Pseudomonas putida KT2440), ORF:5b9d404e; test: DNase I footprinting; conditions: 10 mM Tris-HCl pH 8.0, 50 mM KCl, 5 mM MgCl2, 5% glycerol, 28 °C 20 min; EMSA 10 nM FAM probe (carbamyl phosphate with CzcR3); footprinting 40 nM probe, about …

Substance	binding [1]	binding [2]	binding [3]	stoichiometry N [4]	binding [5]
TGTAAAACGACGGCCAGTTACAGGCGCGGGTTTACTCGCGAAGAGGCCCGAACAGACAGCCAGATAACAGCAGAATTACAAATCCGTTATCTGCACCGCAGGCCTTTTTTCATGCCGTAACATTGGGGCGCTTGACAAAGATGTCACTACAAAGTCAAGAATCGTCCCCTTTCAACATACCGAGCCCCCCATG (double strand) [czcRS3 (czcR3) promoter probe, mutated CadR site]	no binding	–	–	–	–
GTATCGAAATCATCGTGTCGGGTTGGGTTTCCCAGTATTTACGGGCATTACAAAGCTTTCTTACGAAATTGTAATTTTCTAGCCACCCCTCTGATAGCTACCGCTCATTAGAGTGCCATCACCTAATCAAGTGGGGCTTGGCAGCTGTTTCGGCGTTCTCGCCAAGCTTTATCGAAGTTTGTGCACGAGGACCATCAAAGTGCCCCGGTATAACCGCA (double strand) [czcC1 (czcCBA1) promoter probe]	–	binds	binds	–	–
CzcR3, the response regulator of two-component system CzcRS3 (from UniProt F6KX51 1-224) (natural protein)	–	–	–	2	–
GATTATCGAACTTATTGGGCGTTGACTGTCCTGTACCCAGCCGTGCAAAGCTGCTTCTGCAACGAACCGCAGTGCGTCATTACAAAATTGTAATCTTGCCGCCACCGCCCCGATAACCAGCCCTTTCTACAGTCCCTGGCCAATGCT (double strand) [czcC2 (czcCBA2) promoter probe]	–	binds	binds	–	–
TGTAAAACGACGGCCAGTTACAGGCGCGGGTTTACTCGCGAAGAGGCCCGAACAGACAGCCAGATAACAGCAGAATTACAAATCCGTTATCTGCACCGCAGGCCTTTTTTCATGCCGTAACATTGGGGCGCTTGACCCTGATGTCACTACAGGGTCAAGAATCGTCCCCTTTCAACATACCGAGCCCCCCATG (double strand) [czcRS3 (czcR3) promoter probe, native]	binds	binds	binds	–	binds
